Assay results as given in article PMC9324360.

Assays:
Experiment in all cases: MST
Settings in all cases: 0.5 mM Mg2+; MST: 10 mM Tris-HCl pH 8.5, 0.5 mM MgSO4, 50 mM KCl, 10 mM (NH4)2SO4, 0.05% Tween 20; 1 nM oligo; 10 min at 55 °C, measured at 25 °C
[1] = tested on: Tt72 pol D15A (Thermus thermophilus MAT72 phage vB_Tt72)
[2] = tested on: Tt72 pol D184A (Thermus thermophilus MAT72 phage vB_Tt72)
[3] = tested on: Tt72 pol D78A (exo-) (Thermus thermophilus MAT72 phage vB_Tt72)
[4] = tested on: Tt72 pol L27A (Thermus thermophilus MAT72 phage vB_Tt72)
[5] = tested on: Tt72 pol Y180A (Thermus thermophilus MAT72 phage vB_Tt72)
[6] = tested on: Tt72 pol D78A/E389A (Thermus thermophilus MAT72 phage vB_Tt72)
[7] = tested on: Tt72 pol D78A/S616A (Thermus thermophilus MAT72 phage vB_Tt72)
[8] = tested on: Tt72 pol D78A/D615A (Thermus thermophilus MAT72 phage vB_Tt72)
[9] = tested on: Tt72 pol D78A/D384A (Thermus thermophilus MAT72 phage vB_Tt72)
[10] = tested on: Tt72 DNA polymerase WT (Thermus thermophilus MAT72 phage vB_Tt72)
[11] = tested on: Tt72 pol E17A (Thermus thermophilus MAT72 phage vB_Tt72)

TGGCTGCTTCTAAGCCAACATCCT / CTAGTGAGGATGTTGGCTTAGAAGCAGCCA [polTt72-Cy5/polTt72-long primer/template]
Kd [1]: 0.232 µM | Kd [2]: 0.144 µM | Kd [3]: 0.109 µM | Kd [4]: 0.032 µM | Kd [5]: 0.229 µM | Kd [6]: 0.068 µM | Kd [7]: 0.129 µM | Kd [8]: 0.078 µM | Kd [9]: 0.1 µM | Kd [10]: 0.002 µM | Kd [11]: 0.529 µM
